This note sets out measurements from patent US20210275684A1 (MONOJUL, published 2021).

For assay [1], the target named is T1, recombinant human folate receptor beta (FRβ), residues 22 to 236, with ADPG at the N-terminus and five … (human, UniProt P14207 22-236).
T1 construct: also called hFRβ; recombinant FRβ
As to the kind of experiment: SPR, Biacore T200; affinity relative to the chimeric IgG control. As to the method:
(§1) To begin the analysis of the affinity matured antibodies, AS04498 was selected for further analysis. Antibody affinity to antigen protein was determined using a Surface Plasmon Resonance (SPR) biosensor, Biacore T200 (GE Healthcare). Antibody was immobilized on the sensor chip through Fc capture method. Antigen protein was used as the analyte. The data of dissociation (kd) and association (k0) rate constants were obtained using Biacore T200 evaluation software. The equilibrium dissociation constants (KD) were calculated from the ratio of kd over k0.
Background: Surface plasmon resonance follows binding to a sensor surface in real time, without labels.

Assay [2] concerns the target T1, recombinant human folate receptor beta …. Kind of assay: SPR, Biacore T200, antibody captured through Fc, hFRβ as analyte. As to the method: as §1
For assay [3] the target is unchanged. As to the kind of experiment: affinity measurement of full length IgG on recombinant FRβ (FIGS. 6A-6C, summarised in Table 5); reference: Chimeric IgG. The sentence says 'higher' of the KD, but the KD is lower, so the affinity is higher. As to the method: as §1
Assay [4] shares this target. Kind of assay: combinatorial library screen: ELISA on coated antigen, then affinity (dissociation rate) ranking. On the technique in general: ELISA stands for enzyme-linked immunosorbent assay.

T1 sequence (P14207 other isoform, or with tags, fused parts or gaps): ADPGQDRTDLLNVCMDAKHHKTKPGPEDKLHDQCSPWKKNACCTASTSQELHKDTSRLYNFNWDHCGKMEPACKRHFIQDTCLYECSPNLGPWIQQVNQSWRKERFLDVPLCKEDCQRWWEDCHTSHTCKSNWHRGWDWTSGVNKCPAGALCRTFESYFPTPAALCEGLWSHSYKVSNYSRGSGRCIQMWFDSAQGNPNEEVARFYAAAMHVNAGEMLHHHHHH

B1: AS04498 antibody (affinity matured, full length IgG) (antibody, V domains shown)
VH: EVQLVQSGAEVKKPGASVKVSCKASGYTFTYYAMHWVRQAPGQRLEWMGWINAGNGNTKYSQKFQGRVTITRDTSASTAYMELSSLRSEDTAVYYCARDISYGSFDYWGQGTLVTVSS
VL: SSELTQDPAVSVALGQTVRITCQGDSLRSNYANWYQQKPGQAPVLVIYGQFNRPSGIPDRFSGSSSGNTASLTITGAQAADEADYYCDSRVSTGIHVVFGGGTKLTVLG
notes: also called ASO4498; AM
In general, Kd refers to the equilibrium constant for the complex coming apart. A word on the koff: it is the rate constant with which the complex falls apart. One may read the kon as the rate constant with which the complex forms. For the molecule B1, the “Fold Increase” value in assay [1] came out at 38 fold. In addition, in assay [2], the Kd worked out at 2.5 nM, the koff amounted to 0.000144 s⁻¹ and the kon is 57700 M⁻¹ s⁻¹. The “fold change of KD against the chimeric IgG control” value in assay [3] was determined as 38 fold.

B2: M909 IgG (parent monoclonal antibody m909, full length IgG) (antibody, V domains shown, not shown: a dimerising Fc or GST)
VH: EVQLVQSGAEVKKPGASVKVSCKASGYTFTSYAMHWVRQAPGQRLEWMGWINAGNGNTKYSQKFQGRVTITRDTSASTAYMELSSLRSEDTAVYYCARDISYGSFDYWGQGTLVTVSS
VL: SSELTQDPAVSVALGQTVRITCQGDSLRSNYANWYQQKPGQAPVLVIYGQNNRPSGIPDRFSGSSSGNTASLTITGAQAADEADYYCDSRVSTGNHVVFGGGTKLTVLG
notes: also called m909 antibody
For the molecule B2, in assay [2], the Kd was 92.4 nM, the koff is 0.00592 s⁻¹ and the kon is 64100 M⁻¹ s⁻¹.

B3: Clone C (affinity matured antibody from the combinatorial library) (Fab, V domains shown)
VH: EVQLVQSGAEVKKPGASVKVSCKASGYTFTYYAMHWVRQAPGQRLEWMGWINAGNGFTKYSQKFQGRVTITRDTSASTAYMELSSLRSEDTAVYYCARDISYGSFDYWGQGTLVTVSS
VL: SSELTQDPAVSVALGQTVRITCQGDSLRSNYANWYQQKPGQAPVLVIYGQFNRPSGIPDRFSGSSSGNTASLTITGAQAADEADYYCDSRVSTGIHVVFGGGTKLTVLG
notes: Format in the screen not expressly stated
For the molecule B3, the binding result in assay [4] is “binds”.

B4: Clone D (affinity matured antibody from the combinatorial library) (Fab, V domains shown)
VH: EVQLVQSGAEVKKPGASVKVSCKASGYTFTYYAMHWVRQAPGQRLEWMGWINAGNGNTKYSQKFQGRVTITRDTSASTAYMELSSLRSEDTAVYYCARDISYGSFDYWGQGTLVTVSS
VL: SSELTQDPAVSVALGQTVRITCQGDSLRSNYANWYQQKPGQAPVLVIYGQFNLPSGIPDRFSGSSSGNTASLTITGAQAADEADYYCDSRVSTGIHVVFGGGTKLTVLG
notes: as for B3
On to B4, for which the binding result in assay [4] is given as “binds”.

B5: Clone P (affinity matured antibody from the combinatorial library) (Fab, V domains shown)
VH: EVQLVQSGAEVKKPGASVKVSCKASGYTFTIYAMHWVRQAPGQRLEWMGWINAGNGFTKYSQKFQGRVTITRDTSASTAYMELSSLRSEDTAVYYCARDISYGSFDYWGQGTLVTVSS
VL: SSELTQDPAVSVALGQTVRITCQGDSLRSNYANWYQQKPGQAPVLVIYGQNNRPSGIPDRFSGSSSGNTASLTITGAQAADEADYYCDSRVSTGNHVVFGGGTKLTVLG
notes: as for B3
As for B5, the binding result in assay [4] is “binds”.

B6: Clone L (affinity matured antibody from the combinatorial library) (Fab, V domains shown)
VH: EVQLVQSGAEVKKPGASVKVSCKASGYTFTIYAMHWVRQAPGQRLEWMGWINAGNGNTKYSQKFQGRVTITRDTSASTAYMELSSLRSEDTAVYYCARDISYGSFDYWGQGTLVTVSS
VL: SSELTQDPAVSVALGQTVRITCQGDSLRSNYANWYQQKPGQAPVLVIYGQFNRPSGIPDRFSGSSSGNTASLTITGAQAADEADYYCDSRVSTGNHVVFGGGTKLTVLG
notes: as for B3
B6: the binding result in assay [4] was “binds”.

B7: Clone H (affinity matured antibody from the combinatorial library) (Fab, V domains shown)
VH: EVQLVQSGAEVKKPGASVKVSCKASGYTFTIYAMHWVRQAPGQRLEWMGWINAGNGNTKYSQKFQGRVTITRDTSASTAYMELSSLRSEDTAVYYCARDISYGSFDYWGQGTLVTVSS
VL: SSELTQDPAVSVALGQTVRITCQGDSLRSNYANWYQQKPGQAPVLVIYGQFNRPSGIPDRFSGSSSGNTASLTITGAQAADEADYYCDSRVSTGIHVVFGGGTKLTVLG
notes: as for B3
Turning to B7, the binding result in assay [4] is recorded as “binds”.

B8: Clone A (affinity matured antibody from the combinatorial library) (Fab, V domains shown)
VH: EVQLVQSGAEVKKPGASVKVSCKASGYTFTYYAMHWVRQAPGQRLEWMGWINAGNGFTKYSQKFQGRVTITRDTSASTAYMELSSLRSEDTAVYYCARDISYGSFDYWGQGTLVTVSS
VL: SSELTQDPAVSVALGQTVRITCQGDSLRSNYANWYQQKPGQAPVLVIYGQFNLPSGIPDRFSGSSSGNTASLTITGAQAADEADYYCDSRVSTGIHVVFGGGTKLTVLG
notes: as for B3
As to B8, in assay [4], the binding result is on record as “binds”.

B9: Clone B (affinity matured antibody from the combinatorial library) (Fab, V domains shown)
VH: EVQLVQSGAEVKKPGVSVKVSCKASGYTFTYYAMHWVRQAPGQRLEWMGWINAGNGFTKYSQKFQGRVTITRDTSASTAYMELSSLRSEDTAVYYCARDISYGSFDYWGQGTLVTVSS
VL: SSELTQDPAVSVALGQTVRITCQGDSLRSNYANWYQQKPGQAPVLVIYGQFNLPSGIPDRFSGSSSGNTASLTITGAQAADEADYYCDSRVSTGIHVVFGGGTKLTVLG
notes: A16V was placed on the heavy chain; Format in the screen not expressly stated
Turning to B9, the binding result in assay [4] is “binds”.

B10: Clone F (affinity matured antibody from the combinatorial library) (Fab, V domains shown)
VH: EVQLVQSGAEVKKPGASVKVSCKASGYTFTYYAMHWVRQAPGQRLEWMGWINAGNGNTKYSQKFQGRVTITRDTSASTAYMELSSLRSEDTAVYYCARDISYGSFDYWGQGTLVTVSS
VL: SSELTQDPAVSVALGQTVRITCQGDSLRSNYANWYQQKPGQAPVLVIYGQFNLPSGIPDRFSGSSSGNTASLTITGAQAADEADYYCDSRVSTGNHVVFGGGTKLTVLG
notes: as for B3
Take B10: the binding result in assay [4] is reported as “binds”.

B11: Clone I (affinity matured antibody from the combinatorial library) (Fab, V domains shown)
VH: EVQLVQSGAEVKKPGASVKVSCKASGYTFTIYAMHWVRQAPGQRLEWMGWINAGNGNTKYSQKFQGRVTITRDTSASTAYMELSSLRSEDTAVYYCARDISYGSFDYWGQGTLVTVSS
VL: SSELTQDPAVSVALGQTVRITCQGDSLRSNYANWYQQKPGQAPVLVIYGQNNLPSGIPDRFSGSSSGNTASLTITGAQAADEADYYCDSRVSTGIHVVFGGGTKLTVLG
notes: as for B3
Consider B11, for which, in assay [4], the binding result is recorded as “binds”.

B12: Clone M (affinity matured antibody from the combinatorial library) (Fab, V domains shown)
VH: EVQLVQSGAEVKKPGASVKVSCKASGYTFTIYAMHWVRQAPGQRLEWMGWINAGNGNTKYSQKFQGRVTITRDTSASTAYMELSSLRSEDTAVYYCARDISYGSFDYWGQGTLVTVSS
VL: SSELTQDPAVSVALGQTVRITCQGDSLRSNYANWYQQKPGQAPVLVIYGQFNLPSGIPDRFSGSSSGNTASLTITGAQAADEADYYCDSRVSTGNHVVFGGGTKLTVLG
notes: as for B3
For the molecule B12, the binding result in assay [4] is listed as “binds”.

B13: Clone O (affinity matured antibody from the combinatorial library) (Fab, V domains shown)
VH: EVQLVQSGAEVKKPGASVKVSCKASGYTFTYYAMHWVRQAPGQRLEWMGWINAGNGNTKYSQKFQGRVTITRDTSASTAYMELSSLRSEDTAVYYCARDISYGSFDYWGQGTLVTVSS
VL: SSELTQDPAVSVALGQTVRITCQGDSLRSNYANWYQQKPGQAPVLVIYGQNNLPSGIPDRFSGSSSGNTASLTITGAQAADEADYYCDSRVSTGNHVVFGGGTKLTVLG
notes: as for B3
For B13, the binding result in assay [4] is given as “binds”.

B14: Clone J (affinity matured antibody from the combinatorial library) (Fab, V domains shown)
VH: EVQLVQSGAEVKKPGASVKVSCKASGYTFTYYAMHWVRQAPGQRLEWMGWINAGNGFTKYSQKFQGRVTITRDTSASTAYMELSSLRSEDTAVYYCARDISYGSFDYWGQGTLVTVSS
VL: SSELTQDPAVSVALGQTVRITCQGDSLRSNYANWYQQKPGQAPVLVIYGQNNRPSGIPDRFSGSSSGNTASLTITGAQAADEADYYCDSRVSTGIHVVFGGGTKLTVLG
notes: as for B3
On to B14, for which the binding result in assay [4] was “binds”.

B15: Clone G (affinity matured antibody from the combinatorial library) (Fab, V domains shown)
VH: EVQLVQSGAEVKKPGASVKVSCKASGYTFTIYAMHWVRQAPGQRLEWMGWINAGNGNTKYSQKFQGRVTITRDTSASTAYMELSSLRSEDTAVYYCARDISYGSFDYWGQGTLVTVSS
VL: SSELTQDPAVSVALGQTVRITCQGDSLRSNYANWYQQKPGQAPVLVIYGQFNLPSGIPDRFSGSSSGNTASLTITGAQAADEADYYCDSRVSTGIHVVFGGGTKLTVLG
notes: as for B3
With B15, the binding result in assay [4] was “binds”.
